Assay results: patent US20230071609A1 (Genentech, published 2023)

Columns and labels:
[1] = biological target: T1, iAPOL1-G0 in podocytes (EIK variant, doxycycline-inducible, in APOL1 KO podocytes) (human, UniProt O14791 29-398); assay: immunoelectron microscopy, iAPOL1-G0 podocytes, 25 µg/ml
T1 construct: Stably re-expressed untagged APOL1 isoform A in APOL1 KO clone 89401-3; also called iAPOL1-G0 podocytes; iAPOL1 podocytes
T1 chain: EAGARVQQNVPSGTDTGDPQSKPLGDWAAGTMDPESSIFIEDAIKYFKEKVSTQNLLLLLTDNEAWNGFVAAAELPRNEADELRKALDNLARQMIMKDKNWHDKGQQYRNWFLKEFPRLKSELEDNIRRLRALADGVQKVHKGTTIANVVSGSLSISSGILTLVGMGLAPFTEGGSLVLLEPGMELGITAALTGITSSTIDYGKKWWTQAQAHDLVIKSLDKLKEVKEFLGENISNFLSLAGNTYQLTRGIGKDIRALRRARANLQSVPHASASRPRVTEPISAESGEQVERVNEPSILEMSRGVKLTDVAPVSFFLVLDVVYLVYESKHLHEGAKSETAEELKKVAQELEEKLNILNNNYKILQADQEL

[2] = biological target: T2, APOL6-myc-FLAG (human, UniProt Q9BWW8 1-343); assay: immunofluorescence on transfected COS cells; grade (also no cross-reaction by western blot)
T2 construct: whole, on cells; In fixed, permeabilized transfected COS cells; untagged APOL6 in the western blots; not shown: C-terminal myc-FLAG tag
T2 sequence (looked up): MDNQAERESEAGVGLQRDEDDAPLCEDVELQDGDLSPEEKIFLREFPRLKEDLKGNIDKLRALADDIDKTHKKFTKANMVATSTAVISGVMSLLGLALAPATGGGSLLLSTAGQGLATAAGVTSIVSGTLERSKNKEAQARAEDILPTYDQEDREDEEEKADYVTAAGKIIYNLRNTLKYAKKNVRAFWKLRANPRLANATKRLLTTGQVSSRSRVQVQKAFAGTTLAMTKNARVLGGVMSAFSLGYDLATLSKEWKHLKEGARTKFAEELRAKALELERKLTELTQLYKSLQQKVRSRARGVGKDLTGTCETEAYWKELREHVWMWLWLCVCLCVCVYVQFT
Source text: COS cells were transfected as in FIG. 31A except APOL1 and APOL2 were also C-terminally myc-FLAG tagged. Overlays of APOL with epitope tags: either mouse anti-FLAG-M2 or mouse anti-myc 9E10 for anti-APOL1 rabmabs; or rabbit anti-Myc 71D10 in conjunction with mouse anti-APOL1. Signals indicate the two antibodies overlap (i.e. anti-APOL1 cross-reacts with that APOL); signals (epitope tag only) indicate no cross-reactivity. Alexa647 anti-rabbit or mouse were used for the tags to rule out the possibility that any colocalization was a bleed-through artifact. Sparsely transfected areas were imaged to permit evaluation of background staining in adjacent untransfected cells—DAPI nuclear staining identifies both untransfected and transfected cell nuclei. […] Note that none of the antibodies cross-reacted with the more distantly related APOL6. *, APOL2-myc-FLAG is presumably misfolded, since it is not as cross-reactive as untagged APOL2 (compare FIG. 31A) with several antibodies. Commercial antibodies are Sigma HPA018885, Epitomics EPR2907 (2) (Epito) and Proteintech 11486-2-AP (Ptech).
Cells were plated on LabTekII (Nalge Nunc 154534) slides and fixed at 70-100% confluency. For mAb screening, cells were fixed/permeabilized for 5 min in −20° C. methanol (EMD MX0485-6). […]

[3] = biological target: T3, circulating APOL1 in normal human serum (human, UniProt O14791 28-398); assay: cell-based or functional assay
T3 sequence (looked up): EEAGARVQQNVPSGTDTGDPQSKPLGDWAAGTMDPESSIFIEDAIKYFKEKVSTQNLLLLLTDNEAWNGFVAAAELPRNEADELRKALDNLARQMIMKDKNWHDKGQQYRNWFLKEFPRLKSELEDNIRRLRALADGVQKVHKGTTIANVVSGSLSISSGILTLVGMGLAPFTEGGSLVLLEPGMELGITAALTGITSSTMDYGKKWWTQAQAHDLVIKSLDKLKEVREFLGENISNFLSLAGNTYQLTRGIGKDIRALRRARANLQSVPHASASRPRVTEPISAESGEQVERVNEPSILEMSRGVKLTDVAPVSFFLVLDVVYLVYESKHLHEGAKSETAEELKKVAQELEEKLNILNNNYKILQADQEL

[4] = biological target: T1, iAPOL1-G0 in podocytes (EIK variant, …); assay: flow cytometry, iAPOL1-G0 podocytes, 1 µg/ml
Procedure: APOL1 KO (black line) is completely negative, overlapping with Alexa488 anti-mouse secondary alone (grey line) as expected. A representative histogram from 3-4 experiments is shown.
Cells were harvested with 5 mM EDTA in PBS, washed once with growth media and twice with PBS. Approximately 0.5×10⁶/m1 of cells resuspended in PBS were incubated with anti-APOL1 antibodies for 1 h on ice. Following two PBS washes, 2 μg/ml of Alexa488 anti-mouse or anti-rabbit (Invitrogen A11029 and A21206, respectively) was used for 1 h on ice for detection. Cells were washed twice in PBS and resuspended in PBS with 1 μg/ml propidium iodide. Signals were read in a FACSCalibur3 (Becton Dickinson), with the exception of FIG. 8A and FIG. 14, which used a FACSCelesta, and data was analyzed using FlowJo v8.4.5. Mean fluorescence intensities were plotted in PRISM v7 after subtraction of secondary antibody alone background. For low pH experiments, cells were incubated with the antibodies in the presence of PBS pH 7.0 or PBS pH 5.5 for an hour on ice and detected with secondary antibodies at neutral pH.

B1: rabbit monoclonal antibody 5.17D12 (antibody, V domains shown)
VH: QSLEESGGDLVKPGASLTLTCTASGFSFSSNYYMCWVRQAPGKGLEWIACVYVGSGGSTYYASWAKGRFTFSKTSSTTWTLQMTSLTAADTATYFCARDLSYAGDLWGPGTLVTVSS
VL: DPVMTQTPASVSEPVGGTVTINCQASESISSYLAWYQQKPGQPPKLLIYGASNLASGVPSRFKGSGSGTEYTLTISDLECDDAATYYCQSAYYSNSGGHAFGGGTEVVVKG
notes: Rabbit mAb (Method #5), recombinant; also called rabmab 5.17D12
B1: binds [1].

B2: antibody 4.12E5 (antibody, V domains shown)
VH: EVQLQQSGPELVKTGASVKISCKASGYSFTGYFMHWVKQSHGKSLEWIGYISCYNGASVYNQRFKGKATFTIDTSSSTAYMQFNSLTSEDSAVYYCARDVLRYPRYAVDYWGQGTSVTVSS
VL: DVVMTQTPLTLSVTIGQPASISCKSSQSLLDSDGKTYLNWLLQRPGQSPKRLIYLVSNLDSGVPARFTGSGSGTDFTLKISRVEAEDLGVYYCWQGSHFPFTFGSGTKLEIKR
notes: Mouse mAb, cloned as murine IgG2a LALAPG
B2: no binding (tested: 1 µg/ml) [2].

B3: antibody 3.7D6 (antibody, V domains shown)
VH: QIQLVQSGPDLKKPGETVKISCRTSGYAFTNYGVNWVKQAPGKGLKWMGWINTNTGQTTYAEEFRGRFAISLETSASTAFLTISNLKNEDSATYFCARLIYDGDYISSDFWGQGTTLTVSS
VL: DIQMTQSPDSLSASVGETVTITCGASENIYGALNWYQRKQGKSPQLLIYGATNLADGMSSRFSGSRSGRQYSLKISSLHPDDVATYYCQNALSMPYTFGGGTKLEIKR
notes: Mouse mAb, cloned as murine IgG2a LALAPG; those versions are not written separately; also called PFD antibody 3.7D6
With B3 the “IC50 of blocking of serum APOL1-mediated trypanolysis (Alamar Blue)” value [3] was 0.5 nM and the binding result [4] was “binds”.
